The target in assay [1] is T1, recombinant His-tagged murine RAGE protein (ab276858 from Abcam) (murine, UniProt Q62151 23-342, limits assumed).
T1 construct: also called murine RAGE antigen; not shown: His tag
The assay can be described thus: BLI, ANDbody on anti-human IgG Fc biosensors, murine RAGE at 150 nM then murine Notch2 NRR at 150 nM. As to the method:
To test simultaneous dual antigen binding of the Notch2/RAGE ANDbodies by BLI, PRO051, PRO052 and PRO053, along with monovalent parental antibody controls were immobilized on anti-human IgG Fc biosensors and dipped into the recombinant His-tagged murine RAGE protein at 150 nM, followed by a second association step into wells containing recombinant murine Notch2 NRR at 150 nM to measure dual antigen binding. The dissociation rate was then measured by dipping the biosensors into buffer.
Background: Biolayer interferometry detects binding as a change in optical thickness at a sensor tip.

Assay [2] deals with IL-10 receptor of HEK-BLUE IL-10 cells (the cells express all the components of the IL-10 signaling pathway). Description: cell-based or functional assay.
Assay [3] concerns the target T2, DSG1 stably expressed on HEK-BLUE IL-10 cells (called human DSG1; DSG1 gene NP_034209.2) (human, UniProt Q02413 50-1049).
T2 sequence (looked up): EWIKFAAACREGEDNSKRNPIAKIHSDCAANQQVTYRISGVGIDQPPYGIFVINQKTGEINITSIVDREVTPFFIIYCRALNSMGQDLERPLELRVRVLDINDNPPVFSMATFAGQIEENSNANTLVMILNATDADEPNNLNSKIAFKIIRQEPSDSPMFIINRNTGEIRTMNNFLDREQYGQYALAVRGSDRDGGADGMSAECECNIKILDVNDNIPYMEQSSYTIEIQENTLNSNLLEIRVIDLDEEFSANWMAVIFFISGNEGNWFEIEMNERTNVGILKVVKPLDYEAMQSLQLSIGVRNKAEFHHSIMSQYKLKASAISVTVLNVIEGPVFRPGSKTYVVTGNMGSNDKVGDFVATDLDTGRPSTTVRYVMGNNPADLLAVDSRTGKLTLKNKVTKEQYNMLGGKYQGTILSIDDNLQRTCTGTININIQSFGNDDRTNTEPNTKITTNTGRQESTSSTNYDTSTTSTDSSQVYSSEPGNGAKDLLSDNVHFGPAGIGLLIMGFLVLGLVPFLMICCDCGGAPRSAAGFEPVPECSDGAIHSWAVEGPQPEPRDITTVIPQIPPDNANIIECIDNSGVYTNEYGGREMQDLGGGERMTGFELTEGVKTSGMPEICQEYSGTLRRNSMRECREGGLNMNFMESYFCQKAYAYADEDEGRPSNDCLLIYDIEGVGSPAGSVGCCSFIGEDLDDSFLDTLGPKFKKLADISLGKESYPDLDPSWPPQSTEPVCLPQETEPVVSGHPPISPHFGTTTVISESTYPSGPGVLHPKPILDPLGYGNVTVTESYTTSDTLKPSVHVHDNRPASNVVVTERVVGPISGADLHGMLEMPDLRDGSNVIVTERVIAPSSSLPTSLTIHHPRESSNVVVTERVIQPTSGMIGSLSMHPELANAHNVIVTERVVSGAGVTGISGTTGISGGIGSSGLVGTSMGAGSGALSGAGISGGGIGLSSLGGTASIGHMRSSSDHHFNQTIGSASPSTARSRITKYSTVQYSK
The assay can be described thus: cell-based or functional assay.

T1 sequence (Q62151 23-342 limits assumed): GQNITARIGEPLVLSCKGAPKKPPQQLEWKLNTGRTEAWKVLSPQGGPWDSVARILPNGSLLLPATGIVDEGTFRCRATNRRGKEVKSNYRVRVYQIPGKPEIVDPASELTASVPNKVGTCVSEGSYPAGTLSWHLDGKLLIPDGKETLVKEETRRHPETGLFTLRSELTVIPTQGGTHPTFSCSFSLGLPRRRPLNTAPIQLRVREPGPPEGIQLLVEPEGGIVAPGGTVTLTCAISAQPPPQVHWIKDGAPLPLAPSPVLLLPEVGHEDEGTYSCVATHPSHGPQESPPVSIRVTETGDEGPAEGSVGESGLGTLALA

B1: PRO052 (Notch2/RAGE ANDbody made by controlled Fab arm exchange of PRO035 K409R and PRO002 F405L) (bispecific antibody)
heavy 1: not shown
light 1: DIQMTQSPSSLSASVGDRVTITCRASQSNRRFLAWYQQKPGKAPKLLIYGASSRASGVPSRFSGSGSGTDFTLTISSLQPEDFATYYCQQYYISPLTFGQGTKVEIKRTVAAPSVFIFPPSDEQLKSGTASVVCLLNNFYPREAKVQWKVDNALQSGNSQESVTEQDSKDSTYSLSSTLTLSKADYEKHKVYACEVTHQGLSSPVTKSFNRGEC
heavy 2: not shown
light 2: DIQMTQSPSSLSASVGDRVTITCRASQDVGIYVNWFQQKPGKAPRRLIYRATNLADGVPSRFSGSRSGTDFTLTISSLQPEDFATYYCLEFDEHPLTFGGGTKVEIKRTVAAPSVFIFPPSDEQLKSGTASVVCLLNNFYPREAKVQWKVDNALQSGNSQESVTEQDSKDSTYSLSSTLTLSKADYEKHKVYACEVTHQGLSSPVTKSFNRGEC
notes: copies: 1 + 1 + 1 + 1
For the molecule B1, the binding result in assay [1] is “binds”.

B2: PRO051 (Notch2/RAGE ANDbody made by controlled Fab arm exchange of PRO034 K409R and PRO002 F405L) (bispecific antibody)
heavy 1: not shown
light 1: not shown
heavy 2: not shown
light 2: DIQMTQSPSSLSASVGDRVTITCRASQDVGIYVNWFQQKPGKAPRRLIYRATNLADGVPSRFSGSRSGTDFTLTISSLQPEDFATYYCLEFDEHPLTFGGGTKVEIKRTVAAPSVFIFPPSDEQLKSGTASVVCLLNNFYPREAKVQWKVDNALQSGNSQESVTEQDSKDSTYSLSSTLTLSKADYEKHKVYACEVTHQGLSSPVTKSFNRGEC
notes: copies: 1 + 1 + 1 + 1
B2: the binding result in assay [1] is recorded as “binds”.

B3: PRO053 (Notch2/RAGE ANDbody made by controlled Fab arm exchange of PRO036 K409R and PRO002 F405L) (bispecific antibody)
heavy 1: not shown
light 1: DIQMTQSPSSLSASVGDRVTITCRASQSVRSFLAWYQQKPGKAPKLLIYRASIRASGVPSRFSGSGSGTDFTLTISSLQPEDFATYYCQQYYISPWTFGQGTKVEIKRTVAAPSVFIFPPSDEQLKSGTASVVCLLNNFYPREAKVQWKVDNALQSGNSQESVTEQDSKDSTYSLSSTLTLSKADYEKHKVYACEVTHQGLSSPVTKSFNRGEC
heavy 2: not shown
light 2: DIQMTQSPSSLSASVGDRVTITCRASQDVGIYVNWFQQKPGKAPRRLIYRATNLADGVPSRFSGSRSGTDFTLTISSLQPEDFATYYCLEFDEHPLTFGGGTKVEIKRTVAAPSVFIFPPSDEQLKSGTASVVCLLNNFYPREAKVQWKVDNALQSGNSQESVTEQDSKDSTYSLSSTLTLSKADYEKHKVYACEVTHQGLSSPVTKSFNRGEC
notes: copies: 1 + 1 + 1 + 1
Consider B3, for which the binding result in assay [1] is “binds”.

B4: PRO026 (IL-10/DSG1 ANDbody: monomeric IL-10 replacing one Fab of the anti-DSG1 mAb) (other)
heavy: EVQLVESGGGLVQPGRSLRLSCAASGFTFDDYAMHWVRQAPGKGLEWVSGISWNSGSIDYADSVKGRFTISRDNAKNSLYLQMNSLRVEDTALYYCAKDGSRVFGVGGGFDFWGQGTMVTVSSASTKGPSVFPLAPSSKSTSGGTAALGCLVKDYFPEPVTVSWNSGALTSGVHTFPAVLQSSGLYSLSSVVTVPSSSLGTQTYICNVNHKPSNTKVDKKVEPKSCDKTHTCPPCPAPEAAGGPSVFLFPPKPKDTLMISRTPEVTCVVVDVSHEDPEVKFNWYVDGVEVHNAKTKPREEQYNSTYRVVSVLTVLHQDWLNGKEYKCKVSNKALGAPIEKTISKAKGQPREPQVYTLPPSRDELTKNQVKLTCLVKGFYPSDIAVEWESNGQPENNYKTTPPVLDSDGSFFLYSSLTVDKSRWQQGNVFSCSVMHEALHNHYTQKSLSLSPG
light: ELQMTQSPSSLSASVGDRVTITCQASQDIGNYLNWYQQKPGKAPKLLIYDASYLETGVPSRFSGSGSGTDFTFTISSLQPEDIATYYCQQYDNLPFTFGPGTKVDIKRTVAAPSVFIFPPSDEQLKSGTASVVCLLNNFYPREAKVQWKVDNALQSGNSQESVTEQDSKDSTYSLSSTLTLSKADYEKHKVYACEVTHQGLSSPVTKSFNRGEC
chain: SPGQGTQSENSCTHFPGNLPNMLRDLRDAFSRVKTFFQMKDQLDNLLLKESLLEDFKGYLGCQALSEMIQFYLEEVMPQAENQDPDIKAHVNSLGENLKTLRLRLRRCHRFLPCENGGGSGGKSKAVEQVKNAFNKLQEKGIYKAMSEFDIFINYIEAYMTMKIRNGGGGSGGGGSDKTHTCPPCPAPEAAGGPSVFLFPPKPKDTLMISRTPEVTCVVVDVSHEDPEVKFNWYVDGVEVHNAKTKPREEQYNSTYRVVSVLTVLHQDWLNGKEYKCKVSNKALGAPIEKTISKAKGQPREPQVYTLPPSRDELTKNQVSLTCLVSGFYPSDIAVEWESNGQPENNYKTTPPVLDSDGSFKLYSKLTVDKSRWQQGNVFSCSVMHEALHNHYTQKSLSLSPG
Regarding B4, the “EC50 (pM), HEK-BLUE IL-10 signaling assay (SEAP)” value in assay [2] came out at 750 pM.

B5: PRO027 (IL-10/DSG1 ANDbody: IL-10 dimer replacing one Fab of the anti-DSG1 mAb) (other)
heavy: EVQLVESGGGLVQPGRSLRLSCAASGFTFDDYAMHWVRQAPGKGLEWVSGISWNSGSIDYADSVKGRFTISRDNAKNSLYLQMNSLRVEDTALYYCAKDGSRVFGVGGGFDFWGQGTMVTVSSASTKGPSVFPLAPSSKSTSGGTAALGCLVKDYFPEPVTVSWNSGALTSGVHTFPAVLQSSGLYSLSSVVTVPSSSLGTQTYICNVNHKPSNTKVDKKVEPKSCDKTHTCPPCPAPEAAGGPSVFLFPPKPKDTLMISRTPEVTCVVVDVSHEDPEVKFNWYVDGVEVHNAKTKPREEQYNSTYRVVSVLTVLHQDWLNGKEYKCKVSNKALGAPIEKTISKAKGQPREPQVYTLPPSRDELTKNQVKLTCLVKGFYPSDIAVEWESNGQPENNYKTTPPVLDSDGSFFLYSSLTVDKSRWQQGNVFSCSVMHEALHNHYTQKSLSLSPG
light: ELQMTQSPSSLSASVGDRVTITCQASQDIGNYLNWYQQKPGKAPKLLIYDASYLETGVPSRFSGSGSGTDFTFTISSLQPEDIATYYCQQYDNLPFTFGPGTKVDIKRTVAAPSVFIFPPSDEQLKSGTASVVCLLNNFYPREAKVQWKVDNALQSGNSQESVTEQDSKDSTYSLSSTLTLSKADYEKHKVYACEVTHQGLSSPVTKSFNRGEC
chain: SPGQGTQSENSCTHFPGNLPNMLRDLRDAFSRVKTFFQMKDQLDNLLLKESLLEDFKGYLGCQALSEMIQFYLEEVMPQAENQDPDIKAHVNSLGENLKTLRLRLRRCHRFLPCENKSKAVEQVKNAFNKLQEKGIYKAMSEFDIFINYIEAYMTMKIRNGGGSGGGSPGQGTQSENSCTHFPGNLPNMLRDLRDAFSRVKTFFQMKDQLDNLLLKESLLEDFKGYLGCQALSEMIQFYLEEVMPQAENQDPDIKAHVNSLGENLKTLRLRLRRCHRFLPCENKSKAVEQVKNAFNKLQEKGIYKAMSEFDIFINYIEAYMTMKIRNGGGGSGGGGSDKTHTCPPCPAPEAAGGPSVFLFPPKPKDTLMISRTPEVTCVVVDVSHEDPEVKFNWYVDGVEVHNAKTKPREEQYNSTYRVVSVLTVLHQDWLNGKEYKCKVSNKALGAPIEKTISKAKGQPREPQVYTLPPSRDELTKNQVSLTCLVSGFYPSDIAVEWESNGQPENNYKTTPPVLDSDGSFKLYSKLTVDKSRWQQGNVFSCSVMHEALHNHYTQKSLSLSPG
Turning to B5, the “EC50 (pM), HEK-BLUE IL-10 signaling assay (SEAP)” value in assay [2] worked out at 19 pM.

B6: PRO058 (IL-10/DSG1 ANDbody in which monomeric IL-10 replaces one Fab of the anti-DSG1 mAb; functionally equivalent to PRO026, with a substitution in the Fc … (other)
heavy: EVQLVESGGGLVQPGRSLRLSCAASGFTFDDYAMHWVRQAPGKGLEWVSGISWNSGSIDYADSVKGRFTISRDNAKNSLYLQMNSLRVEDTALYYCAKDGSRVFGVGGGFDFWGQGTMVTVSSASTKGPSVFPLAPSSKSTSGGTAALGCLVKDYFPEPVTVSWNSGALTSGVHTFPAVLQSSGLYSLSSVVTVPSSSLGTQTYICNVNHKPSNTKVDKKVEPKSCDKTHTCPPCPAPEAAGGPSVFLFPPKPKDTLMISRTPEVTCVVVDVSHEDPEVKFNWYVDGVEVHNAKTKPREEQYNSTYRVVSVLTVLHQDWLNGKEYKCKVSNKALGAPIEKTISKAKGQPREPQVYTLPPSRDELTKNQVKLTCLVKGFYPSDIAVEWESNGQPENNYKTTPPVLDSDGSFFLYSSLTVDKSRWQQGNVFSCSVMHEALHNHYTQKSLSLSPG
light: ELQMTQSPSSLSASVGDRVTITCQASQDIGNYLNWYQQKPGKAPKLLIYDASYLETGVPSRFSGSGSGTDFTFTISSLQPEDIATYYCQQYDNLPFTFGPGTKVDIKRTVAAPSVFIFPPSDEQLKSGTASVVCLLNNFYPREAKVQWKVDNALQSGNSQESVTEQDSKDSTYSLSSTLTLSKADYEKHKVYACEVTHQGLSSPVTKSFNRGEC
chain: SPGQGTQSENSCTHFPGNLPNMLRDLRDAFSRVKTFFQMKDQLDNLLLKESLLEDFKGYLGCQALSEMIQFYLEEVMPQAENQDPDIKAHVNSLGENLKTLRLRLRRCHRFLPCENGGGSGGKSKAVEQVKNAFNKLQEKGIYKAMSEFDIFINYIEAYMTMKIRNGGGGSGGGGSDKTHTCPPCPAPEAAGGPSVFLFPPKPKDTLMISRTPEVTCVVVDVSHEDPEVKFNWYVDGVEVHNAKTKPREEQYNSTYRVVSVLTVLHQDWLNGKEYKCKVSNKALGAPIEKTISKAKGQPREPQVYTLPPSRDELTKNQVSLTCLVSGFYPSDIAVEWESNGQPENNYKTTPPVLDSDGSFKLYSKLTVDKSRWQQGNVFSCSVMHEALHNRFTQKSLSLSPG
Consider B6, for which the “increase in potency of IL-10 signaling (SEAP) on HEK-BLUE IL-10/DSG1 cells against parental HEK-BLUE IL-10 cells” value in assay [3] is around 15 fold.

The values are drawn from patent publication US20230203158A1 (FLAGSHIP PIONEERING INNOVATIONS VII, published 2023).
